Source: article PMC3323579, “Direct Ubiquitin Independent Recognition and Degradation of a Folded Protein by the Eukaryotic Proteasomes-Origin of Intrinsic Degradation Signals” (PLoS ONE, 2012)
No end group written: not given here. *: point of attachment. Biotin = O=C1N[C@H]2[C@H](CS[C@H]2CCCCC(=O)*)N1

Biological target: yeast 26S proteasome (RPN11-3XFLAG) (yeast, UniProt P43588 1-306)
Assay: ELISA; competition: 8 nM apoMb on immobilised 26S proteasome with peptides 100 µM to 0.01 µM; 100 nM MG132 in all incubations; Ki from a one site binding fit
Conditions: both partners purified

- Ki: 800 ± 400 nM
Binder: Biotin-EWQLVLHVWAKVEAD [A-helix peptide of myoglobin]
